1 molecule from US20230052646A1 (JJP BIOLOGICS SP Z O O, published 2023) can be followed below.

The target of assay [1] is T1, membrane-bound full-length cynomolgus monkey HVEM on transiently transfected HEK293F cells (cynomolgus monkey (Macaca fascicularis)).
T1 construct: also called cynomolgus HVEM
T1 chain: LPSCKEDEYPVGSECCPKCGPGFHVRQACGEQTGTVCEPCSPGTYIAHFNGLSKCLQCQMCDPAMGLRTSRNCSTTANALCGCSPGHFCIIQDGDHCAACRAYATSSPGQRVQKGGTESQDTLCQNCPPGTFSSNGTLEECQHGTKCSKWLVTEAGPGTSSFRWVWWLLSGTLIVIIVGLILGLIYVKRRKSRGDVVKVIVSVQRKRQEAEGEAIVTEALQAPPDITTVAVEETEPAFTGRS
The experiment in a line: FACS, undiluted hybridoma supernatant. On the procedure:
(§1) Generation of human ‘full-length’ HVEM-transfected HEK293F cells (clone no. 128) is described in Example 1a. […] After 72 hours, surface cynomolgus monkey HVEM expression on transfected cells was analysed by FACS analysis. To this end, stable human full-length HVEM-transfected HEK293F cells and transient cynomolgus monkey full-length HVEM-transfected HEK293F cells were put at 10×10⁶ cells/mL in ice-chilled phosphate-buffered saline containing 0.1% BSA (Sigma)/0.05% NaN₃ (PBS/BSA/NaN₃) supplemented with 50 μg/mL human IgGs (blocking of possible Fcγ receptors; Sigma) for 10 minutes at 4° C. Then, 10 μL/tube (i.e., 0.1×10⁶ cells) of these cells were incubated with 100 μL undiluted hybridoma supernatant/tube for 30 minutes at 4° C. Phycoerythrin (PE)-conjugated mouse anti-human HVEM antibody (clone eBioHVEM-122; eBioscience) at 1:20 was run as a positive control antibody. After extensive washing in PBS/BSA/NaN₃, cells were subsequently incubated with 1:200 diluted PE-conjugated goat anti-mouse IgG Fcγ-specific antibodies (Jackson ImmunoResearch) for 30 minutes at 4° C. After extensive washing in PBS/BSA/NaN₃, cells were fixed in 2% formaldehyde in PBS/BSA/NaN₃ for 30 minutes at 4° C. Binding of antibodies was measured using a flow cytometer (model FACSCalibur; BD Biosciences).

For assay [2], the target named is T2, membrane-bound full-length human HVEM on stable HVEM-transfected HEK293F cells (clone no. 128) (human, UniProt Q92956 39-283).
T2 construct: The same cDNA was also expressed on Sf9 insect cells; also called TNFRSF14; CD270
T2 sequence: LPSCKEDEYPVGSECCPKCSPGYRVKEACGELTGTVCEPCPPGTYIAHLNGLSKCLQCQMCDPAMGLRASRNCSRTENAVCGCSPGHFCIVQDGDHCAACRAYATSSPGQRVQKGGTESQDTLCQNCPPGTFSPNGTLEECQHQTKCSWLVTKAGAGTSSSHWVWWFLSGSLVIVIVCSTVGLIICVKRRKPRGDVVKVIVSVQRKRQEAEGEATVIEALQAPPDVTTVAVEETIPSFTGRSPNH
Briefly: FACS titration on HVEM-HEK293F, half-maximum binding. As to the method: In order to determine the relative binding affinity of purified BTLA/HVEM blocking chimeric mouse/human anti-human HVEM antibodies no. 36H12, 45H6, 48H6, 11H7, and 49G4 for human HVEM, FACS analysis was used.
To this end, stable human full-length HVEM-transfected HEK293F cells (clone no. 128; see Example 1(a) above) were put at 10×10⁶ cells/mL in ice-chilled PBS containing 0.1% BSA (Sigma)/0.05% NaN₃ (PBS/BSA/NaN₃) supplemented with 50 μg/mL human IgGs (blocking possible Fcγ receptors; Sigma) for 10 minutes at 4° C. Then, 10 μL/tube (i.e., 0.1×10⁶ cells) of these cells were incubated with or without 100 μL titrated (in PBS/BSA/NaN₃) purified BTLA/HVEM blocking chimeric mouse/human anti-human HVEM antibody/tube for 30 minutes at 4° C. After extensive washing in PBS/BSA/NaN₃, cells were subsequently incubated with 1:200 diluted PE-conjugated goat anti-human IgG Fcγ-specific antibodies (Jackson ImmunoResearch) for 30 minutes at 4° C. After extensive washing in PBS/BSA/NaN₃, cells were fixed in 4% formaldehyde in PBS/BSA/NaN₃ for 30 minutes at 4° C. Binding (geo-mean fluorescence intensity) of chimeric mouse/human anti-human HVEM antibodies no. 36H12, 45H6, 48H6, 11H7, and 49G4 on membrane human HVEM was measured using a flow cytometer (FACSCalibur; BD Biosciences). For comparison, purified BTLA/HVEM blocking mouse anti-human HVEM antibody counterparts no. 36H12, 45H6, 48H6, 11H7, and 49G4 were run in parallel, and their binding was monitored as described in Example 2 (a).

Assay [3] has as its target T3, membrane-bound 'CRD1 truncated' human HVEM on transiently transfected HEK293F cells (human, UniProt Q92956 76-283).
T3 construct: aa 1-19 are a mouse Ig signal peptide and are left out; Starts with CRD2; also called human HVEM deleted for CRD1; CRD1 truncated HVEM
T3 sequence: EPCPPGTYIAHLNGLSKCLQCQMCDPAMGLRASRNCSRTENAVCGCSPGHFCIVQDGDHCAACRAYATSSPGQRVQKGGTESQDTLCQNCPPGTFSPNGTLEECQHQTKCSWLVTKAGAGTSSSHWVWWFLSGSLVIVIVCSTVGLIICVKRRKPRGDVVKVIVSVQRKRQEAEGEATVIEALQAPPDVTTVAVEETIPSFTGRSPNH
The experiment in a line: FACS, undiluted hybridoma supernatant, CRD1 truncated HVEM on HEK293F. As to the method:
as §1, with “human” for “cynomolgus monkey”, “human ‘CRD1 truncated’” for “cynomolgus monkey full-length”

B1: mouse anti-human HVEM antibody no. 36H12 (antibody, mouse IgG1, V domains shown)
VH: EVQLQQSGAGLVKPGASVKLSCTASGFNIKDTYMHWVRQRPEQGLEWIGRIDPATANTKYDPKFQGKATLTTDTSSNTAYLQLSSLTSEDTAVYYCVTYGYDVSWFAYWGLGALVTVSA
VL: DVLMTQTPLSLPVSLGDQASISCRSSQSIVHSNGITYLEWYLQKPGQSPKLLIYKVSNRFSGVPDRFSGSGSGTDFTLKISRVEAEDLGVYYCFQGSHVPLTFGAGTKLELK
notes: mouse IgG1/kappa; also called 36H12 (mouse)
For orientation: EC50 means the concentration needed to bring the measured effect to its halfway point. B1: the binding result in assay [1] and in assay [3] was “no binding” each time. In addition, in assay [2], a half-maximal response (EC50) required 0.43 µg/mL.
